Assay [1] concerns the target TGF-β1 raised in mice by acute liver damage (CCl4) (mouse, UniProt P04202 279-390, limits assumed). Nature of the assay: cell-based or functional assay.
For another assay, the target named is biotinylated TGF-β1 (Homo sapiens (Human), UniProt P01137 279-390, Biotinylated (site or sites not stated) for capture on streptavidin plates. The active cytokine is a disulfide-linked 25 kDa homodimer; one subunit is given.). The assay can be described thus: phage display biopanning on biotinylated TGF-β1 on streptavidin plates; clones among 108 colonies after 3 cycles.
Chain of biotinylated TGF-β1 (P01137 279-390 limits assumed, form in doubt): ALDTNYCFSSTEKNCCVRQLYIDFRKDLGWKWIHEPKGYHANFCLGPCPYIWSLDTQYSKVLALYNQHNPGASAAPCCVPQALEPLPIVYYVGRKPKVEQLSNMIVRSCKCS

Assay [2] concerns the target TGF-β1 (Roche). The assay can be described thus: cell-based or functional assay.
In assay [3] the target is TGF-β1 (Roche). Nature of the assay: cell-based or functional assay. This is another data set of the same source.
Chain of TGF-β1 (Roche) (P01137 279-390): as the sequence (P01137 279-390 limits assumed, form in doubt) above

Chain of TGF-β1 raised in mice by acute liver damage (CCl4) (P04202 279-390 limits assumed): as the sequence (P01137 279-390 limits assumed, form in doubt) above, with A75S counted along it
Protocol for biotinylated TGF-β1: This technique involves incubating a set of phages representative (to practical effects) of all the 15-aa variants, in a plate blocked with streptavidin (10 μg/ml in 0.1 M NaHCO₃, during 2 h at room temperature) to which biotinylated TGF-β1 is added. […] TGF-β1 contacts the peptides carried by the phages at a concentration of 3×10⁴ virus/ml. After about 12 hours incubation, unbound phages are eliminated by 5 washings with PBS/Tween (phosphate buffered saline/polyoxyalkylene derivatives of sorbitan fatty acid esters). […] The eluted phages are then amplified by infection in a bacterial strain (E. coli). […] At the end of the process, phages which have been selected for their affinity for TGF-β1, are sequenced by using primers, after isolation by tetracycline resistance of the genetically modified phages after infecting E. coli cells. […] The number of times which a sequence is repeated, corresponding to a 15 amino acids peptide carried by each clone, from the total of sequenced colonies is an indication of the degree of relative affinity of said 15 amino acids sequence for TGF-β1.

B1: peptide identified by SEQ ID NO: 14 (peptide)
peptide: SGRRHLHRHHIFSLP
notes: 15-aa peptide
For the molecule B1, the “% Inhibition (type I collagen mRNA induction, acute liver damage model in mice)” value in assay [1] turned out to be 49.8%. For the same molecule, in the assay with biotinylated TGF-β1, the No. colonies was found to be 2 colonies. Further, the “% Inhibition (Mv-1-Lu cell line growth reestablishment, 3H-thymidine)” value with TGF-β1 (Roche) [2] was 3.62%.

B2: peptide identified by SEQ ID NO: 13 (peptide)
peptide: RKWFLQHRRMPVSVL
notes: 15-aa peptide
For B2, the “% Inhibition (type I collagen mRNA induction, acute liver damage model in mice)” value in assay [1] was 32.7%. Moreover, the No. colonies with biotinylated TGF-β1 came to 6 colonies. In addition, the “% Inhibition (Mv-1-Lu cell line growth reestablishment, 3H-thymidine)” value with TGF-β1 (Roche) [2] came out at 18%.

B3: truncated peptide SEQ ID NO: 33 (T10) (peptide)
peptide: KRIWFIPRSSWYER
In the case of B3, in the assay with TGF-β1 (Roche) [3], the “% Inhibition (Mv-1-Lu cell line growth reestablishment)” value is 31.4%.

B4: peptide identified by SEQ ID NO: 18 (peptide)
peptide: MPLSRYWWLFSHRPR
notes: 15-aa peptide
Consider B4, for which the No. colonies with biotinylated TGF-β1 amounted to 1 colonies. In addition, in the assay with TGF-β1 (Roche) [2], the “% Inhibition (Mv-1-Lu cell line growth reestablishment, 3H-thymidine)” value was determined as 21.3%.

B5: peptide identified by SEQ ID NO: 3 (peptide)
peptide: RFFTRFPWHYHASRL
notes: 15-aa peptide
Take B5: in assay [1], the “% Inhibition (type I collagen mRNA induction, acute liver damage model in mice)” value turned out to be 2.09%. The No. colonies with biotinylated TGF-β1 amounted to 41 colonies. In addition, the “% Inhibition (Mv-1-Lu cell line growth reestablishment, 3H-thymidine)” value in the assay with TGF-β1 (Roche) [2] worked out at 25.4%.

B6: truncated peptide SEQ ID NO: 28 (T5) (peptide)
peptide: WFIPRSSWY
In the case of B6, the “% Inhibition (Mv-1-Lu cell line growth reestablishment)” value with TGF-β1 (Roche) [3] is 3.1%.

B7: peptide identified by SEQ ID NO: 12 (peptide)
peptide: WHKYFLRRPLSVGLG
notes: 15-aa peptide
In turn, B7 gave a No. colonies with biotinylated TGF-β1 of 1 colonies. Moreover, in the assay with TGF-β1 (Roche) [2], the “% Inhibition (Mv-1-Lu cell line growth reestablishment, 3H-thymidine)” value turned out to be 10.7%.

B8: truncated peptide SEQ ID NO: 25 (T2) (peptide)
peptide: RIWFIPRSSWYER
In the case of B8, in the assay with TGF-β1 (Roche) [3], the “% Inhibition (Mv-1-Lu cell line growth reestablishment)” value amounted to 6.2%.

B9: peptide identified by SEQ ID NO: 20 (peptide)
peptide: RRFHFHSRMVAVDNS
notes: 15-aa peptide
B9: in assay [1], the “% Inhibition (type I collagen mRNA induction, acute liver damage model in mice)” value was 1.41%. The No. colonies with biotinylated TGF-β1 amounted to 1 colonies. For the same molecule, in the assay with TGF-β1 (Roche) [2], the “% Inhibition (Mv-1-Lu cell line growth reestablishment, 3H-thymidine)” value came to 6.16%.

B10: peptide identified by SEQ ID NO: 6 (peptide)
peptide: PPYHRFWRGHRHAVQ
notes: 15-aa peptide
With B10, the “% Inhibition (type I collagen mRNA induction, acute liver damage model in mice)” value in assay [1] is 74.9%. Moreover, the No. colonies with biotinylated TGF-β1 came to 12 colonies. Besides, the “% Inhibition (Mv-1-Lu cell line growth reestablishment, 3H-thymidine)” value with TGF-β1 (Roche) [2] worked out at 12.8%.

B11: peptide identified by SEQ ID NO: 19 (peptide)
peptide: RHLSHFKWLRSHGLD
notes: 15-aa peptide
As to B11, the “% Inhibition (type I collagen mRNA induction, acute liver damage model in mice)” value in assay [1] was determined as 12.1%. In the assay with biotinylated TGF-β1, the No. colonies is 1 colonies. Moreover, the “% Inhibition (Mv-1-Lu cell line growth reestablishment, 3H-thymidine)” value with TGF-β1 (Roche) [2] is 9.71%.

B12: peptide identified by SEQ ID NO: 15 (peptide)
peptide: GWITFHRRHHDRVLS
notes: 15-aa peptide
B12: the “% Inhibition (type I collagen mRNA induction, acute liver damage model in mice)” value in assay [1] was 14.3%. Also, the No. colonies in the assay with biotinylated TGF-β1 amounted to 1 colonies. In addition, in the assay with TGF-β1 (Roche) [2], the “% Inhibition (Mv-1-Lu cell line growth reestablishment, 3H-thymidine)” value turned out to be 13.4%.

B13: peptide identified by SEQ ID NO: 9 (peptide)
peptide: GWHSLLHSRYHRLAA
notes: 15-aa peptide
Consider B13, for which, in assay [1], the “% Inhibition (type I collagen mRNA induction, acute liver damage model in mice)” value came to 26.6%. In addition, in the assay with biotinylated TGF-β1, the No. colonies worked out at 1 colonies. In addition, the “% Inhibition (Mv-1-Lu cell line growth reestablishment, 3H-thymidine)” value with TGF-β1 (Roche) [2] is 4.98%.

B14: peptide identified by SEQ ID NO: 4 (peptide)
peptide: RLAHSHRHRSHVALT
notes: 15-aa peptide
As for B14, the “% Inhibition (type I collagen mRNA induction, acute liver damage model in mice)” value in assay [1] came to 51.3%. Further, the No. colonies with biotinylated TGF-β1 is 18 colonies. In addition, in the assay with TGF-β1 (Roche) [2], the “% Inhibition (Mv-1-Lu cell line growth reestablishment, 3H-thymidine)” value was 5.53%.

B15: truncated peptide SEQ ID NO: 32 (T9) (peptide)
peptide: PRSSWYERA
As for B15, the “% Inhibition (Mv-1-Lu cell line growth reestablishment)” value with TGF-β1 (Roche) [3] was determined as 3.8%.

B16: truncated peptide SEQ ID NO: 26 (T3) (peptide)
peptide: IWFIPRSSWYERA
In the case of B16, the “% Inhibition (Mv-1-Lu cell line growth reestablishment)” value with TGF-β1 (Roche) [3] is 4.5%.

B17: truncated peptide SEQ ID NO: 27 (T4) (peptide)
peptide: IWFIPRSSWYE
B17: the “% Inhibition (Mv-1-Lu cell line growth reestablishment)” value with TGF-β1 (Roche) [3] turned out to be 1.4%.

B18: peptide identified by SEQ ID NO: 10 (peptide)
peptide: FVWVRFHRLPRQIYT
notes: 15-aa peptide
Consider B18, for which the No. colonies in the assay with biotinylated TGF-β1 amounted to 1 colonies. Also, the “% Inhibition (Mv-1-Lu cell line growth reestablishment, 3H-thymidine)” value in the assay with TGF-β1 (Roche) [2] was -4.58%.

B19: peptide identified by SEQ ID NO: 7 (peptide)
peptide: HRISHFAHRYLARLH
notes: 15-aa peptide
Consider B19, for which the No. colonies in the assay with biotinylated TGF-β1 is 2 colonies. Further, the “% Inhibition (Mv-1-Lu cell line growth reestablishment, 3H-thymidine)” value with TGF-β1 (Roche) [2] is -25%.

B20: peptide identified by SEQ ID NO: 1 (peptide)
peptide: DRRIFWWSLRSAPGA
notes: 15-aa peptide
B20: the “% Inhibition (type I collagen mRNA induction, acute liver damage model in mice)” value in assay [1] turned out to be 0.69%. The No. colonies with biotinylated TGF-β1 worked out at 6 colonies. Further, the “% Inhibition (Mv-1-Lu cell line growth reestablishment, 3H-thymidine)” value with TGF-β1 (Roche) [2] turned out to be 3.33%.

B21: peptide identified by SEQ ID NO: 2 (peptide)
peptide: DRRIFWWSNRSAPGA
notes: 15-aa peptide
B21: in assay [1], the “% Inhibition (type I collagen mRNA induction, acute liver damage model in mice)” value worked out at 36.6%. In the assay with biotinylated TGF-β1, this molecule returned a No. colonies of 1 colonies. In the assay with TGF-β1 (Roche) [2], the “% Inhibition (Mv-1-Lu cell line growth reestablishment, 3H-thymidine)” value was -0.96%.

B22: peptide identified by SEQ ID NO: 8 (peptide)
peptide: WHWRHRIPLQLAAGR
notes: 15-aa peptide
B22 showed a No. colonies with biotinylated TGF-β1 of 2 colonies. Besides, the “% Inhibition (Mv-1-Lu cell line growth reestablishment, 3H-thymidine)” value in the assay with TGF-β1 (Roche) [2] stood at 15.7%.

B23: peptide identified by SEQ ID NO: 22 (peptide)
peptide: VPMALNHGVYVMVSS
notes: 15-aa peptide
In turn, B23 yielded a No. colonies in the assay with biotinylated TGF-β1 of 1 colonies. The “% Inhibition (Mv-1-Lu cell line growth reestablishment, 3H-thymidine)” value in the assay with TGF-β1 (Roche) [2] turned out to be 4.13%.

B24: peptide identified by SEQ ID NO: 16 (peptide)
peptide: RLHGHRSHRFTHVAQ
notes: 15-aa peptide
B24 had a No. colonies in the assay with biotinylated TGF-β1 of 1 colonies. In the assay with TGF-β1 (Roche) [2], the “% Inhibition (Mv-1-Lu cell line growth reestablishment, 3H-thymidine)” value came to 9.47%.

B25: truncated peptide SEQ ID NO: 24 (T1) (peptide)
peptide: RIWFIPRSSWYERA
For B25, in the assay with TGF-β1 (Roche) [3], the “% Inhibition (Mv-1-Lu cell line growth reestablishment)” value is 9.4%.

B26: TGF-β1 inhibitor peptide P17 (SEQ ID NO: 17) (peptide)
peptide: KRIWFIPRSSWYERA
notes: 15-aa peptide
For the molecule B26, the “% Inhibition (Mv-1-Lu cell line growth reestablishment)” value with TGF-β1 (Roche) [3] was found to be 28.5%. Besides, the “% Inhibition (type I collagen mRNA induction, acute liver damage model in mice)” value in assay [1] stood at 93.1%. For the same molecule, the No. colonies with biotinylated TGF-β1 was 3 colonies. The “% Inhibition (Mv-1-Lu cell line growth reestablishment, 3H-thymidine)” value in the assay with TGF-β1 (Roche) [2] worked out at 38.9%.

B27: peptide identified as P144 in the Spanish patent application ES 2146552 A1 (SEQ ID NO: 51) (peptide)
peptide: TSLDASIIWAMMQN
In the case of B27, the “% Inhibition (type I collagen mRNA induction, acute liver damage model in mice)” value in assay [1] was -3.51%. Further, in the assay with TGF-β1 (Roche) [2], the “% Inhibition (Mv-1-Lu cell line growth reestablishment, 3H-thymidine)” value worked out at 7.26%.

B28: truncated peptide SEQ ID NO: 30 (T7) (peptide)
peptide: FIPRSSWYERA
For the molecule B28, the “% Inhibition (Mv-1-Lu cell line growth reestablishment)” value with TGF-β1 (Roche) [3] was -0.3%.

B29: truncated peptide SEQ ID NO: 34 (T11) (peptide)
peptide: KRIWFIPRSSWY
Regarding B29, the “% Inhibition (Mv-1-Lu cell line growth reestablishment)” value in the assay with TGF-β1 (Roche) [3] stood at 34.4%.

B30: truncated peptide SEQ ID NO: 36 (T13) (peptide)
peptide: KRIWFIPRS
For B30, the “% Inhibition (Mv-1-Lu cell line growth reestablishment)” value in the assay with TGF-β1 (Roche) [3] is 6.2%.

B31: peptide identified by SEQ ID NO: 5 (peptide)
peptide: RRWVRYPVHLHSPIV
notes: 15-aa peptide
B31 returned a No. colonies in the assay with biotinylated TGF-β1 of 1 colonies. The “% Inhibition (Mv-1-Lu cell line growth reestablishment, 3H-thymidine)” value with TGF-β1 (Roche) [2] came to 15.8%.

B32: truncated peptide SEQ ID NO: 35 (T12) (peptide)
peptide: KRIWFIPRSS
Take B32: in the assay with TGF-β1 (Roche) [3], the “% Inhibition (Mv-1-Lu cell line growth reestablishment)” value was determined as 6%.

B33: truncated peptide SEQ ID NO: 29 (T6) (peptide)
peptide: WFIPRSSWYERA
For the molecule B33, the “% Inhibition (Mv-1-Lu cell line growth reestablishment)” value in the assay with TGF-β1 (Roche) [3] came out at 2.7%.

B34: peptide identified by SEQ ID NO: 11 (peptide)
peptide: WHKYFLRRPLSVRTR
notes: 15-aa peptide
As to B34, the “% Inhibition (type I collagen mRNA induction, acute liver damage model in mice)” value in assay [1] was found to be 39.3%. In addition, the No. colonies with biotinylated TGF-β1 turned out to be 4 colonies. Further, the “% Inhibition (Mv-1-Lu cell line growth reestablishment, 3H-thymidine)” value in the assay with TGF-β1 (Roche) [2] amounted to 27.4%.

B35: peptide identified by SEQ ID NO: 21 (peptide)
peptide: HVRLHHYLRHRSLPN
notes: 15-aa peptide
Molecule B35 registered a No. colonies in the assay with biotinylated TGF-β1 of 1 colonies. The “% Inhibition (Mv-1-Lu cell line growth reestablishment, 3H-thymidine)” value with TGF-β1 (Roche) [2] came to 13.4%.

B36: truncated peptide SEQ ID NO: 31 (T8) (peptide)
peptide: IPRSSWYERA
Regarding B36, the “% Inhibition (Mv-1-Lu cell line growth reestablishment)” value with TGF-β1 (Roche) [3] came out at 3.4%.

The values are drawn from patent publication US20100222280A1 (PROYECTO DE BIOMEDICINA CIMA S L, published 2010).
